# Changes are numbered by the printed parent chain.
# Experiments:
# GIPR A294V (human) = target: T1, GIPR A294V (human) (UniProt P48546)
# T1 sequence: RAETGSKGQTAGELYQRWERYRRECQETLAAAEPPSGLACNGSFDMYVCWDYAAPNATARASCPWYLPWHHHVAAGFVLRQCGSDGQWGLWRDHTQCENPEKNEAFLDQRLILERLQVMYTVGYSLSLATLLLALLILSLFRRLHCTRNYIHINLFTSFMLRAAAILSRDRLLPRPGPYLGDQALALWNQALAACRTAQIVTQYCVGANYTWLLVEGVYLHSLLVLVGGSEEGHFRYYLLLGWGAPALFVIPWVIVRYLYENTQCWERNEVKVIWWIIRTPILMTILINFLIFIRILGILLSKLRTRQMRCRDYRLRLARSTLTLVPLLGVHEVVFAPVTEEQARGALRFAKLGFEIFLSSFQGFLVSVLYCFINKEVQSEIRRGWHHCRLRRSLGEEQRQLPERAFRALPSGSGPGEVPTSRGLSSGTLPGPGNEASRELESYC
# GIPR E288G (human) = target: T2, GIPR E288G (human) (UniProt P48546)
# T2 sequence: T1 sequence with E267G, V273A
# GIPR E354Q (human) = target: T3, GIPR E354Q (human) (UniProt P48546)
# T3 sequence: T1 sequence with V273A, E333Q
# GIPR E418K (human) = target: T4, GIPR E418K (human) (UniProt P48546)
# T4 sequence: T1 sequence with V273A, E397K
# GIPR L304R (human) = target: T5, GIPR L304R (human) (UniProt P48546)
# T5 sequence: T1 sequence with V273A, L283R
# GIPR S415I (human) = target: T6, GIPR S415I (human) (UniProt P48546)
# T6 sequence: T1 sequence with V273A, S394I
substance,measurement,setting,value
β-arrestin 2 (Rluc8-Arrestin-3-Sp1) (from UniProt P32121 1-409) (natural protein),β-arrestin 2 recruitment (BRET) on stimulation with GIP(1-42): logEC50 (Arrestin) (log M (inferred)),GIPR A294V (human),-9.01
same,β-arrestin 2 recruitment (BRET) on stimulation with GIP(1-42): logEC50 (Arrestin) (log M (inferred)),GIPR E288G (human),-9.15
same,β-arrestin 2 recruitment (BRET) on stimulation with GIP(1-42): logEC50 (Arrestin) (log M (inferred)),GIPR E354Q (human),-8.52
same,β-arrestin 2 recruitment (BRET) on stimulation with GIP(1-42): logEC50 (Arrestin) (log M (inferred)),GIPR E418K (human),-9.19
same,β-arrestin 2 recruitment (BRET) on stimulation with GIP(1-42): logEC50 (Arrestin) (log M (inferred)),GIPR L304R (human),-9.41
same,β-arrestin 2 recruitment (BRET) on stimulation with GIP(1-42): logEC50 (Arrestin) (log M (inferred)),GIPR S415I (human),-9.12
